# The nanobody polyreactivity screen of Harvey et al. (2022)
# Assay: yeast display, Sf9 membrane polyspecificity reagent, FACS + sequencing; frameworks hold sequencing errors
# Method in brief: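 A nanobody's polyreactivity label depends on the gate it was sorted from. Yeast display cells were stained with 10% biotinylated, detergent-solubilized Sf9 membrane reagent for 1 hour at 4 °C, enriched on streptavidin microbeads and sorted by FACS. The low and high (top ~1%) gates were set on anti-HA fluorescence for expression and streptavidin fluorescence for reagent binding.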
row,Sequence,polyreactivity (PSR sort gate)
1,QVHLVESGGGLVQAGGSLRLSCAAYGRIFKNYAMGWYRQAPGKESELVAAISWSGGRTYYADSVKGRFTISRDNAKNTVYLQMNSLKPEDTAVYYCATAARRGTSSIEPFGYGSWGQGTQVTVSS,high polyreactivity
2,QVQLVESGAGLVQAGGSLRLSCAASGRTLKTYVMGWYRQAPGKERELVAAITCGGRTYYADSVKGRFTISRDNAKNTVYLQMNSLKPEDTAVYYCNAQLYWYRYWYLFDNTSFDYWGQGTQVTVSS,low polyreactivity
3,QVQLVESGGGLVQAGGNLLLSCAASGFNFVDYAMGWSRQAPGKERELVASIDRSDGSTYYADSVKGRFTFSRDNAKNTVYLLMNSLKPEDTAVYYCAAADQLYSISTGDYWGQGTQVTVSL,low polyreactivity
4,QVHLVESGGGLDQAGGTLRLSCAATGSIIQSYAMGWYRQAPGKESELVAAITARGTSTYYADSVKGRFTISRDNAKNTVYLQMNSLKPEETAVYYCTTDRSRSPGDVECQSDIKRDYWGQGTQVTVSS,low polyreactivity
5,QVQLVESGGGLDQAGGSLRLSCAASGSIFDSYVMGWYRQAPGKERDLVAAFSRGGSTYYADSVKGRFTISRDNAQNTVYLQINSLKPEDTSVYYCAAGYRVHSPDDCYWGQGTQVTVSS,low polyreactivity
6,QVQLVESGGGLVQAGGSLRLSCAASGRTFYSYAMGWYRKAPGKERELVAAISASGGRTYYADSVKGRFTISRDNAKNTVYLQMNSLKPEDTAVYYCAAYPWYRMWGQGTQVTVSS,high polyreactivity
7,QVQLVESGGGLVQAGGSLRLSCAASGRIFRYYAMGWYRQAPGKERELVAAIRWTAGSTYYADSVKGRFTISRDIAKNTVYLQMNSLKPEDTAVYYCATDVWKYGRYEYWGQGTQVTVSS,low polyreactivity
8,QVQLVESGGGLVQAGGSLRLSCAASGSIIARYAMGWYRQAPGKERELVAANTWSATSTYYADSVKGRFTISRDNAKNTVYLQMNSLKPEDTAVYYCNAGASYFLVISQSRGDYWGQGTQVTVSS,low polyreactivity
9,QVQLVESGGGLVQAGGSLRLSCAASGITFKYNAMGWYRPAPGKERELVAAISSGGNTYYADSVKGRFTISRDNAKNTVYLQMNSLKPEDTAVYYCAAPSYDTLWHDYWGQGTQVTVSS,low polyreactivity
10,QVQLVESGGGLVQAGGSLRLSCAASGSIFALYTMGWYRQAPWKERELVAGIRTGRSTNYADSVKGRFTISRDNAKNTVYLQMNSLKPEDTAVYYDYWGQGTQVTVSS,low polyreactivity
11,QVQLVESGGGLVQSGGSLRLSCAASGSIFDFYVMGWYRQAPGKERELVAAITWSDGSTYYADSVKGRFTISRDNAKNTVYLQMNSLKPEDTAVYYCNAGYFPLLGYPADAIGYDYWGQGTQVTVSS,low polyreactivity
12,QVQLVESGGGLVQAGGSLRLSCAASGSTIWRNTMGWYRQAPGKERELVADIRNVGSTYYADSVKGLFTISRDNAKNTVYLQMNSLKPEDTAVYYCYARWRFLYDYWGQGTQVTVSS,high polyreactivity
13,QVQLVESGGGLVQAGGSLRLTCAASGSTFRVNVMGWYRQAPGTERELVAAITTSGGSTYYADSVKGRFTISRDNAKNTVYLQMNSLKPEDTAVYYCKTTYPSGWGPDMDYWGQGTQVTVSS,low polyreactivity
14,QVQLVESGGVLVQAGGSLRLSCAASGSTFTDYAMGWYRQAPGKERELVAAITDSGGRTYYADSVKGRFTISRDNAKNTVYLQMNSLKPEDTAVYYCATEDDRWYYWGQGTQVTVSS,high polyreactivity
15,QVQLVESGGGLVQAGGSLSLSCAATGSIITSNAMGWYRQAPGKERELVAAISWSGSRTFYADSVKGRFTISRDNEKNTVYLQMNSLKPEDTAVYYCAAGNRKWKMGYWGQGTQVTVSS,high polyreactivity
16,QVQLVESGGGLVQAGGSLRLSCAASGRTLYYYAMGWYRQAPGKERELVAAITRSGGSTYYADSVKGRFTISRDNAKNTVYLQMISLKPEDTEVYYFNKYGYKGGLGYDYWGQGTQVTVSS,high polyreactivity
17,QVQLVESGGRLVQAGGSLRLSCAASGRTFRSYAMGWYRPAPGKEWELVAAIRTSDGITYYADSVKGRFTISRDNAKNTVDLQMNSLQPEDTAVYYCAAENWYKYDYWGQGTQVTVSS,low polyreactivity
18,QVQLVESGGGLVQAGGSLRLSCAASGGTFAWNAMGWYRQATGKERELVAAISFDGTSTYYADSVKGRFTISRDNAKNTVYLQMNSLKPEDTAVYYCNRVYLGYFRYDYWGQGTQVTVSS,high polyreactivity
19,QVQLQESGGGLVQAGGSLRLSCAASGTIFYKDDMGWYRQAPGKEREFVAGIDRGGTTNCAGSVKGRFTISRDNAKNTVYLQMISLKPEDTAVYYCAAYYPDIYPFIYRGQGTQVTVSS,high polyreactivity
20,QVQLVESGGGLVQAGGSLRLSCAASVSIFISYAMGWYRQAPGKERELVAAISSGGSTNYADSVKGRFTISRDNAKNTVYLQMNSLKPEDTAVYYCAADGWLWSFTGDGWWFDDWGQGTQVTVSS,low polyreactivity
21,QVQLVESRGGLVQAGGSLRLSCAASGLIFGFNTMGWYRQAPGKERELVAAITSGGGSTYYADSVKGRFTISRDNAKNTVYLQMNSLKPEDTAVYYCNAGGGRWRARQWHDYWGQGTQVTVSS,low polyreactivity
22,QVQLVESGGGLVQAGGSLRLSCAASGITFIYYTMGWYRQEPGKERELVAAISSRGSSTYYADSVKGRFTISRDNAKNTVYLQMNSLKPEDTAVYYCAAVQYRYGGMDYWGQGTQVTVSS,high polyreactivity
23,QDQLVESGGGLVQAVGSLRLSCAASGRIFVYNAMGGYRQAPGKEREFVATITSSGGRTYYADSVKGRFTISRDNSKNTVYLQMNSLKPEDTAVYYCAARPQNNGRNPVYRYNYWGQGTQVTVSS,high polyreactivity
24,QVQLVESGGGLDQARGSLRLSCAASGSTFGRYAIGWYRQAHGKERELVAAINSRGGRTYYADSVKGRFTISRDNAKNTVYLQMNSLKPEVTAVYYCAAPTGPKGYYSDRGDSWGQGTQVTLSS,low polyreactivity
25,QVQLVESGGGLVQAGGSLRLSCAASGRIFSYYAMGWYRQAPGKERELVAAISRTGGTTYYADSVKGRFTISRDNAKNTVYLQMNSLNPEDTAVYYCYAVKAPYMRYDYWGQGTQVTVSS,high polyreactivity
26,QVQLVESGGGLVQAGGSLRLSCAASGSPFHRYVMGWYRQAPGKERELVAVINSTGGSTYYADSVKGRFTISRDHAKNTVDLQMNSLKPEDTAVYYCNAVRDWGPSQVYDGMDYWGQGTQVTVSS,low polyreactivity
27,QVQLVESGGGLVQAGGSLRLSCAASGRIFGIYAMGWYRQAPGKERELVAAISYSGGSTYYADSVKGRFTISRDNAKNTVYLQMNSLNPEDTAVYYCNADYYASYYPYYSIRLDYWGQGTQVTVSS,low polyreactivity
28,QDQLGESGGGLVQAGGSLRLTCAASGFIFSNNAMGWYRPSPGKERELVAAISGSGVSTYYADSVKGRFTISRDNAKNTVYLQMNSLKPEDTAVYYCAASASLRHDYWGQGTQVTVSS,high polyreactivity
29,QVQLVESGGGLVQAGGRLSLSCAASGSIFLYYAMGWYRQAPGKEREFVADISRSGGSTYYADSVKGRFTISRDNAKNTVYLQMNSLKPEDTAVYYCAASFYRYFVSLCYDYWGQGTQVSVSS,high polyreactivity
30,QVQLVESGGGLVQAGGSLRLSCAPSGSIFHYNAMGWYRQAPGKEREFVAVISKSSGSTFYADSVKGRFTISRDNAKNTVYLLMISLKPEDTAVYYCNRVTKRYPNIGNYWGQGTQVSVSS,high polyreactivity
